The data set relates to Escherichia coli TOP10. The data set is described as follows: shrunken log2 fold change of peptide-encoding DNA abundance (4.5 h post-induction vs induction); higher = less antimicrobial activity (less host growth inhibition). Conditions: time post-induction: 4.5 h; library: site-saturation at positions 5, 18, 19, 20.
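Also: peptides expressed intracellularly from a pBAD plasmid library in pooled LB shake-flask culture, induced with 0.3% L-arabinose, DNA abundance read by NGS, three biological replicates, DESeq2 with apeglm shrinkage.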

For the sequence RRIRTRPPRLPRPRPRPRLIPRP, the “shrunken log2 fold change” value is -0.113.
On to RRIRQRPPRLPRPRPRPVYEPRP, for which the “shrunken log2 fold change” value was -0.0143.
Turning to RRIRRRPPRLPRPRPRPKNIPRP, the “shrunken log2 fold change” value was -0.136.
For RRIRWRPPRLPRPRPRPFHIPRP, the “shrunken log2 fold change” value was -0.655.
For RRIRLRPPRLPRPRPRPIHTPRP, the “shrunken log2 fold change” value is -0.133.
In the case of RRIRPRPPRLPRPRPRPELDPRP, the “shrunken log2 fold change” value came out at 0.0969.
As for RRIRSRPPRLPRPRPRPTHYPRP, the “shrunken log2 fold change” value is -0.125.
As for RRIRIRPPRLPRPRPRPYSGPRP, the figure is 0.00727.
As for RRIRPRPPRLPRPRPRPTNYPRP, the figure is -0.542.
Take RRIRPRPPRLPRPRPRPWGEPRP: the “shrunken log2 fold change” value was 0.113.
As for RRIRIRPPRLPRPRPRPDATPRP, the figure is 0.0122; as for RRIRQRPPRLPRPRPRPMPNPRP, -0.215.
On to RRIRVRPPRLPRPRPRPHAIPRP, for which the “shrunken log2 fold change” value is -0.0728.
RRIRTRPPRLPRPRPRPCVAPRP: the “shrunken log2 fold change” value was found to be 0.192.
As for RRIRRRPPRLPRPRPRPYCPPRP, the “shrunken log2 fold change” value is -0.187.
With RRIRIRPPRLPRPRPRPLVKPRP, the “shrunken log2 fold change” value was -0.0899.
As for RRIRQRPPRLPRPRPRPGNAPRP, the “shrunken log2 fold change” value amounted to 0.322.
RRIRTRPPRLPRPRPRPVQDPRP: the “shrunken log2 fold change” value is -0.00469.
Take RRIRFRPPRLPRPRPRPIDAPRP: the “shrunken log2 fold change” value is -0.289.
As for RRIRTRPPRLPRPRPRPQRYPRP, the “shrunken log2 fold change” value is -0.127.
With RRIRIRPPRLPRPRPRPNHIPRP, the “shrunken log2 fold change” value is -1.16.
RRIRVRPPRLPRPRPRPCYRPRP: the “shrunken log2 fold change” value is -0.00925.
RRIRSRPPRLPRPRPRPPMLPRP: the “shrunken log2 fold change” value turned out to be 0.0967.
In the case of RRIRARPPRLPRPRPRPFLCPRP, the “shrunken log2 fold change” value was found to be 0.0599.
As to RRIRFRPPRLPRPRPRPDVVPRP, the “shrunken log2 fold change” value is -0.181.
For the sequence RRIRHRPPRLPRPRPRPHSGPRP, the “shrunken log2 fold change” value was -0.487.
For RRIRPRPPRLPRPRPRPCKKPRP, the “shrunken log2 fold change” value was -0.0659.
As for RRIRERPPRLPRPRPRPSYIPRP, the figure is -0.216; as for RRIRWRPPRLPRPRPRPRYCPRP, -0.139; as for RRIRWRPPRLPRPRPRPENMPRP, -0.185.
As for RRIRNRPPRLPRPRPRPCMPPRP, the figure is -0.549; as for RRIRMRPPRLPRPRPRPTQSPRP, 1.03; as for RRIRWRPPRLPRPRPRPETFPRP, 0.0493.
Consider RRIRRRPPRLPRPRPRPGGEPRP, for which the “shrunken log2 fold change” value was determined as 0.356.
Turning to RRIRRRPPRLPRPRPRPCKPPRP, the “shrunken log2 fold change” value came to 0.151.
The figure for RRIRFRPPRLPRPRPRPHIKPRP is -0.793; for RRIRDRPPRLPRPRPRPCVIPRP it is 0.1; for RRIRMRPPRLPRPRPRPKGTPRP it is 1.69.
Turning to RRIRVRPPRLPRPRPRPLTWPRP, the “shrunken log2 fold change” value is -0.195.
For RRIRFRPPRLPRPRPRPGAFPRP, the “shrunken log2 fold change” value was -0.162.
Turning to RRIRYRPPRLPRPRPRPTMNPRP, the “shrunken log2 fold change” value was -0.446.
Take RRIRIRPPRLPRPRPRPMRGPRP: the “shrunken log2 fold change” value came out at 1.32.
Consider RRIRPRPPRLPRPRPRPSAKPRP, for which the “shrunken log2 fold change” value amounted to 0.528.
In the case of RRIRGRPPRLPRPRPRPYMFPRP, the “shrunken log2 fold change” value was 0.221.
For the sequence RRIRNRPPRLPRPRPRPIIPPRP, the “shrunken log2 fold change” value was -0.0623.
Consider RRIRTRPPRLPRPRPRPEEAPRP, for which the “shrunken log2 fold change” value is -0.0948.
RRIRRRPPRLPRPRPRPYIIPRP: the “shrunken log2 fold change” value was -0.427.
Take RRIRNRPPRLPRPRPRPYVFPRP: the “shrunken log2 fold change” value is -0.7.
Turning to RRIRMRPPRLPRPRPRPPRHPRP, the “shrunken log2 fold change” value is 0.955.
In the case of RRIRFRPPRLPRPRPRPYKIPRP, the “shrunken log2 fold change” value was -0.462.
As for RRIRQRPPRLPRPRPRPRWMPRP, the figure is 0.0157; as for RRIRKRPPRLPRPRPRPTKNPRP, 0.392; as for RRIRCRPPRLPRPRPRPNHIPRP, -0.994.
For RRIRNRPPRLPRPRPRPPSQPRP, the “shrunken log2 fold change” value worked out at 0.16.
The figure for RRIRRRPPRLPRPRPRPSKKPRP is 0.144; for RRIRCRPPRLPRPRPRPEWWPRP it is -0.00726; for RRIRNRPPRLPRPRPRPRREPRP it is 0.38.
The figure for RRIRARPPRLPRPRPRPMIWPRP is 0.415.
As for RRIRLRPPRLPRPRPRPKSNPRP, the figure is -0.172; as for RRIRYRPPRLPRPRPRPFCFPRP, -0.114.
For RRIRHRPPRLPRPRPRPCHYPRP, the “shrunken log2 fold change” value is -0.4.
As to RRIRKRPPRLPRPRPRPMYPPRP, the “shrunken log2 fold change” value came to 0.00349.
RRIRMRPPRLPRPRPRPVLTPRP: the “shrunken log2 fold change” value worked out at 0.27.
Regarding RRIRQRPPRLPRPRPRPMFIPRP, the “shrunken log2 fold change” value was -0.129.
The figure for RRIRPRPPRLPRPRPRPENDPRP is -0.0164; for RRIRRRPPRLPRPRPRPRGVPRP it is 0.816.
In the case of RRIRDRPPRLPRPRPRPDTSPRP, the “shrunken log2 fold change” value is -0.114.
Take RRIRNRPPRLPRPRPRPHRSPRP: the “shrunken log2 fold change” value came to 0.283.
Consider RRIRDRPPRLPRPRPRPTEDPRP, for which the “shrunken log2 fold change” value is -0.0699.
As for RRIRSRPPRLPRPRPRPKQMPRP, the “shrunken log2 fold change” value is -0.0354.
As to RRIRYRPPRLPRPRPRPVPVPRP, the “shrunken log2 fold change” value was -0.24.
Take RRIRCRPPRLPRPRPRPYAKPRP: the “shrunken log2 fold change” value was -0.671.
Consider RRIRSRPPRLPRPRPRPAFCPRP, for which the “shrunken log2 fold change” value was determined as 0.259.
Consider RRIRRRPPRLPRPRPRPICAPRP, for which the “shrunken log2 fold change” value amounted to 0.127.
Consider RRIRSRPPRLPRPRPRPDQNPRP, for which the “shrunken log2 fold change” value was -0.182.
In the case of RRIRLRPPRLPRPRPRPHTTPRP, the “shrunken log2 fold change” value is -0.368.
As for RRIRQRPPRLPRPRPRPLYSPRP, the figure is -0.649; as for RRIRSRPPRLPRPRPRPQWYPRP, -0.73.
With RRIRMRPPRLPRPRPRPSNKPRP, the “shrunken log2 fold change” value came to 0.0232.
Take RRIRLRPPRLPRPRPRPLTPPRP: the “shrunken log2 fold change” value was 0.62.
The figure for RRIRTRPPRLPRPRPRPPMMPRP is -0.121; for RRIRMRPPRLPRPRPRPPKWPRP it is 0.315.
In the case of RRIRTRPPRLPRPRPRPHKVPRP, the “shrunken log2 fold change” value is -0.00818.
RRIRFRPPRLPRPRPRPNYDPRP: the “shrunken log2 fold change” value is -0.866.
As to RRIRSRPPRLPRPRPRPFYMPRP, the “shrunken log2 fold change” value is -0.561.
As for RRIRSRPPRLPRPRPRPVWVPRP, the figure is 0.351.
As for RRIRTRPPRLPRPRPRPNAGPRP, the figure is 0.0361; as for RRIRFRPPRLPRPRPRPPSNPRP, 0.324; as for RRIRQRPPRLPRPRPRPHHPPRP, 0.00343.
Consider RRIRQRPPRLPRPRPRPCARPRP, for which the “shrunken log2 fold change” value was -0.0014.
As for RRIRVRPPRLPRPRPRPGGQPRP, the figure is -0.0141; as for RRIRWRPPRLPRPRPRPKIHPRP, -0.23.
As for RRIRRRPPRLPRPRPRPQYYPRP, the figure is -0.968.
For RRIRFRPPRLPRPRPRPERDPRP, the “shrunken log2 fold change” value is -0.0622.
With RRIRHRPPRLPRPRPRPYRIPRP, the “shrunken log2 fold change” value is -0.231.
Turning to RRIRTRPPRLPRPRPRPHFIPRP, the “shrunken log2 fold change” value is -0.321.
For RRIRDRPPRLPRPRPRPAGDPRP, the “shrunken log2 fold change” value is 0.523.
The figure for RRIRGRPPRLPRPRPRPWIFPRP is 0.224; for RRIRGRPPRLPRPRPRPAHYPRP it is 0.447; for RRIRFRPPRLPRPRPRPHLVPRP it is -0.33.
For the sequence RRIRKRPPRLPRPRPRPPGWPRP, the “shrunken log2 fold change” value was 0.675.
For RRIRDRPPRLPRPRPRPGNQPRP, the “shrunken log2 fold change” value was -0.0686.
In the case of RRIRERPPRLPRPRPRPQRPPRP, the “shrunken log2 fold change” value was -0.0471.
Regarding RRIRWRPPRLPRPRPRPYSRPRP, the “shrunken log2 fold change” value is -0.0788.
On to RRIRSRPPRLPRPRPRPHREPRP, for which the “shrunken log2 fold change” value was -0.14.
With RRIRSRPPRLPRPRPRPNIGPRP, the “shrunken log2 fold change” value is -0.283.
In the case of RRIRMRPPRLPRPRPRPAHPPRP, the “shrunken log2 fold change” value stood at 0.296.
In the case of RRIRIRPPRLPRPRPRPFFKPRP, the “shrunken log2 fold change” value is -0.629.
RRIRWRPPRLPRPRPRPSSPPRP: the “shrunken log2 fold change” value is -0.0889.
With RRIRSRPPRLPRPRPRPEFKPRP, the “shrunken log2 fold change” value was found to be 0.00218.
Take RRIRWRPPRLPRPRPRPEWNPRP: the “shrunken log2 fold change” value turned out to be 0.482.
With RRIRTRPPRLPRPRPRPWIRPRP, the “shrunken log2 fold change” value is -0.0303.
Turning to RRIRRRPPRLPRPRPRPIAFPRP, the “shrunken log2 fold change” value was -0.0124.
For the sequence RRIRFRPPRLPRPRPRPQEMPRP, the “shrunken log2 fold change” value was 0.126.
Consider RRIRTRPPRLPRPRPRPTKTPRP, for which the “shrunken log2 fold change” value is 0.0558.
Regarding RRIRGRPPRLPRPRPRPNFAPRP, the “shrunken log2 fold change” value stood at 0.569.
For RRIRYRPPRLPRPRPRPMEPPRP, the “shrunken log2 fold change” value was -0.0132.
In the case of RRIRNRPPRLPRPRPRPDREPRP, the “shrunken log2 fold change” value is -0.149.
For the sequence RRIRRRPPRLPRPRPRPFWYPRP, the “shrunken log2 fold change” value is -0.192.
With RRIRSRPPRLPRPRPRPCHSPRP, the “shrunken log2 fold change” value stood at 0.00316.
As for RRIRLRPPRLPRPRPRPGRRPRP, the figure is 0.363; as for RRIRGRPPRLPRPRPRPQCIPRP, 0.438; as for RRIRVRPPRLPRPRPRPPFCPRP, 1.39.
Consider RRIRVRPPRLPRPRPRPLLAPRP, for which the “shrunken log2 fold change” value amounted to 0.343.
Consider RRIRPRPPRLPRPRPRPAEGPRP, for which the “shrunken log2 fold change” value came out at 0.394.

The record behind these values is the supplement of paper PMC9112550, “Optimization of the antimicrobial peptide Bac7 by deep mutational scanning” (BMC Biology, 2022).
